Experimental data taken from patent publication US6890716B1, “Recombinant cell line and screening method for identifying agents which regulate apoptosis and tumor suppression” (Howard Hughes Medical Institute, priority 1998, dated 2005).

B1: pm1-BtfS: BtfS fused to the GAL-4 DNA binding domain in mammalian expression vector pm1 (protein)
chain: MKLLSSIEQACDICRLKKLKCSKEKPKCAKCLKNNWECRYSPKTKRSPLTRAHLTEVESRLERLEQLFLLIFPREDLDMILKMDSLQDIKALLTGLFVQDNVNKDAVTDRLASVETDMPLTLRQHRISATSSSEESSNKGQRQLTVSMGRANSRSHSSRSKSRSQSSSRSRSRSHSRKKRYRSRSRTYSRSRSRDRMYSRDYRRDYRNNRGMRRPYGYRGRGRGYYQGGGGRYHRGGYRPVWNRRHSRSPRRGRSRSRSPKRRSVSSRSRSRSRRSYRSSRSPRSSSSRSSSPYSKSPVSKRRGSQEKQTKKAEGEPQEESPLKSKSQEEPKDTFEHDPSESIDEFNKSSATSGDIWPGLSAYDNSPRSPHSPSPIATPPSQSSSCSDAPMLSTVHSAKNTPSQHSHSIQHSPERSGSGSVGNGSSRYSPSQNSPIHHIPSRRSPAKTIAPQNAPRDESRGRSSFYPDGGDQETAKTGKFLKRFTDEESRVFLLDRGNTRDKEASKEKGSEKGRAEGEWEDQEALDYFSDKESGKQKFNDSEGDDTEETEDYRQFRKSVLADQGKSFATASHRNTEEEGLKYKSKVSLKGNRESDGFREEKNYKLKETGYVVERPSTTKDKHKEEDKNSERITVKKETQSPEQVKSEKLKDLFDYSPPLHKNLDAREKSTFREESPLRIKMIASDSHRPEVKLKMAPVPLDDSNRPASLTKDRLLASTLVHSVKKEQEFRSIFDHIKLPQASKSTSESFIQHIVSLVHHVKEQYFKSAAMTLNERFTSYQKATEEHSTRQKSPEIHRRIDISPSTLRKHTRLAGEERVFKEENQKGDKKLRCDSADLRHDIDRRRKERSKERGDSKGSRESSGSRKQEKTPKDYKEYKSYKDDSKHKREQDHSRSSSSSASPSSPSSREEKESKKEREEEFKTHHEMKEYSGFAGVSRPRGTFFRIRGRGRARGVFAGTNTGPNNSNTTFQKRPKEEEWDPEYTPKSKKYFLHDDRDDGVDYWAKRGRGRGTFQRGRGRFNFKKSGSSPKWTHDKYQGDGIVEDEEETMENNEEKKDRRKEEKE
B2: ΔC210: Deletion mutant of BtfS, amino acids 1-210, cloned into pm1 (protein, UniProt Q9NYF8 1-210, looked up, fragment)
chain: MGRSNSRSHSSRSKSRSQSSSRSRSRSHSRKKRYSSRSRSRTYSRSRSRDRMYSRDYRRDYRNNRGMRRPYGYRGRGRGYYQGGGGRYHRGGYRPVWNRRHSRSPRRGRSRSRSPKRRSVSSQRSRSRSRRSYRSSRSPRSSSSRSSSPYSKSPVSKRRGSQEKQTKKAEGEPQEESPLKSKSQEEPKDTFEHDPSESIDEFNKSSATSG
modifications: BtfS isoform
notes: Deletion mutant of BtfS, amino acids 1-210, cloned into pm1

Tests used:
[1] = molecular target: temperature sensitive p53 (val135) mutant expressed in p53A cells (UniProt P02340); assay: cell-based or functional assay
p53A cells = assay: Apoptotic morphology of transfected cells by indirect immunofluorescence at the permissive temperature; assay type: cell-based, rat; settings: 24 μg plasmid DNA, permissive temperature (FIG. 9)
Procedure: Apoptotic morphology was assessed by scoring for cells that are positive by fluorescence microscopy and are rounded and non adherent.
In addition, we determined the percentage of cells with apoptotic morphology that were ectopically expressing wild-type p300 ectopically or the E1A-binding mutant of p300 following transient transfection with 24 μg of plasmid DNA. Apoptotic morphology was determined by counting cells that were rounded in shape and detaching from the dish. The percentage of cells with apoptotic morphology transiently expressing a control protein, a fragment of the lamin A protein (Rao et al. 1996), compared to p300 and mutant p300 transfected p53A cells at the permissive temperature was determined by indirect immunofluorescence.

mdm2 in p53A cells = assay: Up-regulation of endogenous Mdm2 by indirect immunofluorescence; assay type: cell-based, rat; settings: indirect immunofluorescence (FIG. 7)
Procedure: Cells were fixed in cold methanol prior to incubation with primary antibodies. Subsequent to several washes in PBS, cells were incubated with rhodamine-conjugated goat anti-mouse antibody or fluorescein-conjugated goat anti-rabbit antibody. Cells were then washed, mounted and analyzed by fluorescence microscopy using a Nikon FXA epifluorescence microscope.
The indicated amount of plasmid DNA was transfected by electroporation. After transfection, cells were incubated at 37.5° C. for 24 hours to recover, and were then shifted to 32° C. for 24 hours before analysis for viability by trypan blue staining and apoptotic morphology. […]
We next attempted to rescue p53A cells from apoptosis at the permissive temperature by ectopically expressing p300. Vector alone, wild-type p300 and a functional but truncated form of p300 with a deletion of E1A binding domain (Arany et al. 1994), were transiently transfected in p53A cells. p53-dependent apoptosis was examined at the permissive temperature 48 hours post-transfection. p53A cells transiently expressed the exogenous wild-type p300 and the E1A binding mutant form of p300, neither of which were detected in mock transfected cells. The up-regulation of mdm2 in p300 transfected cells was not detected by Western blot analysis above endogenous levels (FIG. 6) because the transfection efficiency was low in transient assays. […]

[2] = test system: GAL-4 luciferase reporter construct in HeLa cells; assay: Transcriptional reporter assay (GAL-4 luciferase reporter); assay type: cell-based
Procedure: Transcriptional reporter assays were performed as described previously (Catron, et al., 1995). HeLa cells were plated onto 60 mm tissue culture dishes and grown to 50-75% confluency. The cells were then transfected with 2.5 μg of a GAL-4 luciferase reporter construct (kindly provided by Dr. C. Abate-Shen, Center for Advanced Biotechnology and Medicine, Piscataway, N.J.) along with 2.5 μg of both a pm1 vector (BtfS, BtfS-N552 or BtfS-C210) and a bcl-2 family gene (pCMV-E1B 19K, pcDNA3-Bcl-2, or pcDNA3-Flag-Bcl-xL). DNA concentrations were kept constant using appropriate empty vectors, either pm1 or pcDNA3. The cells were transfected using SuperFect (Qiagen, Valencia, Calif.) according to the manufacturer's specifications and harvested 24 hours post-transfection. Expression of mutant and wild-type BtfS proteins were verified by immunofluorescence using an antibody against the GAL-4 DNA-binding domain (Clontech, San Fransisco, Calif.). Luciferase activity was determined using the Luciferase Assay System (Promega Corp., Madison, Wis.) measured in a scintillation counter, and then normalized for protein concentrations measured by a Bradford assay. […]
To address these issues, BtfS was cloned into a mammalian expression vector (pm1) containing the GAL-4 DNA binding domain. Transcriptional activity was monitored using a reporter construct containing GAL-4 promoter sites. […]

Row | Molecule | percentage of apoptotic cells (morphology, indirect immunofluorescence) among p53A cells expressing the protein [1] [%] | percentage of expressing cells with apoptotic morphology (p53A cells) [%] | transfected cells showing up-regulation of Mdm2 (mdm2 in p53A cells) [%] | also measured
1 | mutant mdm2 with deletion of the N-terminal p53-binding domain (pCOC-ΔXM / pCMVβ-ΔXM) (from UniProt P23804 102-489) | 30 |  |  | 
2 | mutant p300: Functional but truncated p300 with deletion of the E1A binding domain (pCMVβp300Δ30) |  | 8 | 90 | 
3 | wild-type mdm2 (pCOC-X2 / pCMVβ-X2) (from UniProt P23804 1-489) | 10 |  |  | 
4 | wild-type p300: Transcriptional coactivator p300, HA-tagged, expressed from pCMVβp300 |  | 4 | 90 | 
5 | B1 |  |  |  | decrease in transcription compared to empty pm1 vector control ([2]; 24 hours post-transfection (FIG. 27)): ~10 fold
6 | B2 |  |  |  | ability to repress transcription (in words) ([2]; pm1 GAL-4 DNA-binding domain fusions (FIG. 27)): sufficient for repression and nearly as potent as full-length BtfS
